Reference: patent US20220048947A1 (NANOTAG BIOTECHNOLOGIES, published 2022)
Where no end group is shown, it is not given here.

B1: NbALFA^ST (NbALFA clone 1G5) (VHH)
VHH: EVQLQESGGGLVQPGGSLRLSCTASGVTISALNAMAMGWYRQAPGERRVMVAAVSERGNAMYRESVQGRFTVTRDFTNKMVSLQMDNLKPEDTAVYYCHVLEDRVDSFHDYWGQGTQVTVSS
notes: Alpaca single-domain antibody; also called ALFA Selector^ST (immobilised on agarose resin); FluoTag-X2 anti-ALFA (coupled to AbberiorStar635P or IRDye800CW)

Tests used:
[1] = target: B1; assay: peptide elution from NbALFA^ST resin; tag position N
[2] = target: T1, ALFA^ST peptide (Ac-PSRLEEELRRRLTEP-Amide); assay: X-ray structure of the complex
T1 construct: also called free ALFA^ST peptide; ALFA peptide
T1 peptide: Ac-PSRLEEELRRRLTEP-NH2

ALFA^ST-FLAG-Vimentin [3] = target: T2, ALFA^ST-FLAG-Vimentin (Mus musculus (Mouse), UniProt P20152 2-466); assay: direct immunofluorescence on PFA-fixed COS-7 cells
T2 construct: Expressed in COS-7 cells; also called ALFA^ST-Vimentin; ALFA^ST-tagged Vimentin
T2 sequence (P20152 other isoform, or with tags, fused parts or gaps): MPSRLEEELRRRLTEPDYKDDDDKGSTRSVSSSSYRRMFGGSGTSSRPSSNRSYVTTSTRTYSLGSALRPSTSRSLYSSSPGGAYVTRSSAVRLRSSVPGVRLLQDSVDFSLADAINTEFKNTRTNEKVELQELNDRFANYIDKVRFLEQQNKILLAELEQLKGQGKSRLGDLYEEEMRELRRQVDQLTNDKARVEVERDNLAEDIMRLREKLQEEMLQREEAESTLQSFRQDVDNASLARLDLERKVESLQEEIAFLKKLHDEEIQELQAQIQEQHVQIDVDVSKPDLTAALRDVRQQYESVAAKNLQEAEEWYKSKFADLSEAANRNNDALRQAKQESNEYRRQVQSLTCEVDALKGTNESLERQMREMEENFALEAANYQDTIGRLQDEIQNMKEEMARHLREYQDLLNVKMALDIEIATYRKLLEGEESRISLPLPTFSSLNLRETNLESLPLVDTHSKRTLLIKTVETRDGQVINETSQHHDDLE

ALFA^PE-FLAG-Vimentin = target: T3, ALFA^PE-FLAG-Vimentin (Mus musculus (Mouse), UniProt P20152 2-466); assay: direct immunofluorescence on PFA-fixed COS-7 cells
T3 construct: Expressed in COS-7 cells; also called ALFA^PE-Vimentin; ALFA^PE-tagged Vimentin
T3 sequence (P20152 other isoform, or with tags, fused parts or gaps): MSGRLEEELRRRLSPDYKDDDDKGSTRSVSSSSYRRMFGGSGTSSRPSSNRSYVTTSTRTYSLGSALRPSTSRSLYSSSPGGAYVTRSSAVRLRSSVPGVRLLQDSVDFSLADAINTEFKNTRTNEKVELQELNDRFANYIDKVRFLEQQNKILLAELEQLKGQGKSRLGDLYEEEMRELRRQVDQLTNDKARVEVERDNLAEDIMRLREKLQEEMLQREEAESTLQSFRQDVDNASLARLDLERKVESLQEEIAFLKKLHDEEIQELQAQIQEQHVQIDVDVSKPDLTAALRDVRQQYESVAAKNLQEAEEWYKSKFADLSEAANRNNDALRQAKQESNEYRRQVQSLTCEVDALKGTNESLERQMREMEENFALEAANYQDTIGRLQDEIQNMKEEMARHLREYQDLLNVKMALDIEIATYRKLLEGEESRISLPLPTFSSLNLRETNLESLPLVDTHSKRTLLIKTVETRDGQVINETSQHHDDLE

[4] = target: maltose-binding protein (MBP) fused to multiple epitope tags (FLAG, HA, myc and ALFA^ST); assay: dot blot, 2.7 nM nanobody or primary antibody
PpiD [5] = target: T4, PpiD (E. coli, UniProt P0ADY1 1-623); assay: pull-down on ALFA Selector^ST from DDM lysate, Western blot
T4 sequence (looked up): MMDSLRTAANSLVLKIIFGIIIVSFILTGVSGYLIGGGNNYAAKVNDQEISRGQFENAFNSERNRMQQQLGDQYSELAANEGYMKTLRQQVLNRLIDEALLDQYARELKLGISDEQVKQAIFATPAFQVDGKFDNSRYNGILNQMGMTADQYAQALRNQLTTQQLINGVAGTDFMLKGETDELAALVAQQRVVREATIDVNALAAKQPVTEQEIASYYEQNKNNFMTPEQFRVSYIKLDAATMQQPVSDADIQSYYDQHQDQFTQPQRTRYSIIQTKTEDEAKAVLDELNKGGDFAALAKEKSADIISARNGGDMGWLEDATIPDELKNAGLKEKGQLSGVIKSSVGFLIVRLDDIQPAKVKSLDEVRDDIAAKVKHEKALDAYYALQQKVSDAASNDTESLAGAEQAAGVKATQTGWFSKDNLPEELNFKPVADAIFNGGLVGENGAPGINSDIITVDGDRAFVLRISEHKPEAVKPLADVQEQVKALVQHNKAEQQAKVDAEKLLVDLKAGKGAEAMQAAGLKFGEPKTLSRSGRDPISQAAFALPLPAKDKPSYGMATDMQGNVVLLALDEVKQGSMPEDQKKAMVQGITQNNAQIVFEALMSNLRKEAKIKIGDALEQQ

YfgM (non-tagged) [6] = target: T5, YfgM (non-tagged) (E. coli, UniProt P76576 1-206); assay: as above
T5 construct: Control without tag; also called wild-type YfgM; untagged YfgM
T5 sequence: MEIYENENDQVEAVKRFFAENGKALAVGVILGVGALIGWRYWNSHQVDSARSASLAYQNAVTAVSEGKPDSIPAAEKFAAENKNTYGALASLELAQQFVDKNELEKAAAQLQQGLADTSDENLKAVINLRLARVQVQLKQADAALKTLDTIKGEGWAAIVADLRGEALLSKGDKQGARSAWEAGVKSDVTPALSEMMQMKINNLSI

PpiD [7] = target: T4, PpiD; assay: pull-down on ALFA Selector^PE from DDM lysate, Western blot
YfgM (non-tagged) [8] = target: T5, YfgM (non-tagged); assay: as above
[9] = target: B1; assay: peptide elution from NbALFA^ST resin; tag position C
[10] = target: B1; assay: peptide elution from NbALFA^ST resin; tag position M
ALFA^ST-FLAG-Vimentin [11] = target: T2, ALFA^ST-FLAG-Vimentin; assay: intrabody co-expression in COS-7 cells, fluorescence microscopy

Row | Binder | t1/2 [9] | t1/2 [10] | also measured
1 | MSGLEQELRRRLTPS (not fully specified (residue 15); printed as MSGLEQELRRRLTPs, Tag variant tested inside a fusion protein, position N) [MSGLEQELRRRLTPs (SEQ ID NO: 110)] |  |  | t1/2 [1]: < 0.0333 h
2 | B1 |  |  | binding result [2]: binds; binding result (ALFA^ST-FLAG-Vimentin [3]): binds; binding result (ALFA^PE-FLAG-Vimentin): binds; fold lower detection limit against all other epitope tags [4]: ~10 fold; binding result (PpiD [5]): no binding; binding result (YfgM (non-tagged) [6]): no binding
3 | NbALFA^PE (VHH, Weaker mutant of NbALFA^ST made by rational mutagenesis from the crystal structure; used on agarose (ALFA Selector^PE) or in solution (MST); also called NbALFA^PE mutant; ALFA Selector^PE (immobilised on agarose resin)) VHH: EVQLQESGGGLVQPGGSLRLSCTASGVTISALNAMAMGWYRQAPGEERVMVAAVSSRGNAMYRESVQGRFTVTRDFTNKMVSLQMDNLKPEDTAVYYCHVLEDRVDSFHDYWGQGTQVTVSS |  |  | binding result (PpiD [7]): no binding; binding result (YfgM (non-tagged) [8]): no binding
4 | GPSRLEEELRRRLTA (Tag variant tested inside a fusion protein, position C) [gPSRLEEELRRRLTA. (SEQ ID NO: 19)] | > 1.67 h |  | 
5 | GPSRLEEELRRRLTE (Tag variant tested inside a fusion protein, position C) [gpSRLEEELRRRLTE. (SEQ ID NO: 28)] | > 1.67 h |  | 
6 | GRSRLEEELRRRLTA (Tag variant tested inside a fusion protein, position C) [grSRLEEELRRRLTA. (SEQ ID NO: 08)] | > 1.67 h |  | 
7 | PGSRLEEELRRRLTAP (Tag variant tested inside a fusion protein, position M) [pgSRLEEELRRRLTAp (SEQ ID NO: 09)] |  | > 1.67 h | 
8 | PSTRLEEELRRRLTAP (Tag variant tested inside a fusion protein, position M) [psTRLEEELRRRLTAp (SEQ ID NO: 10)] |  | > 1.67 h | 
9 | MSSRLEEELRRRLTEP (not fully specified (residues 2, 16); printed as MsSRLEEELRRRLTEp, Tag variant tested inside a fusion protein, position N) [MsSRLEEELRRRLTEp (SEQ ID NO: 30)] |  |  | t1/2 [1]: > 1.67 h
10 | GPSRLEEELRRRLTAA (Tag variant tested inside a fusion protein, position C) [gPSRLEEELRRRLTAa. (SEQ ID NO: 20)] | > 1.67 h |  | 
11 | GPSRLEEELRRRLTAP (Tag variant tested inside a fusion protein, position C) [gpSRLEEELRRRLTAp. (SEQ ID NO: 26)] | > 1.67 h |  | 
12 | GPSRLEEELRRRLTEP (Tag variant tested inside a fusion protein, position C) [gpSRLEEELRRRLTEp. (SEQ ID NO: 27)] | > 1.67 h |  | 
13 | SPSGLEEELRRRLTEP (Tag variant tested inside a fusion protein, position M) [spSGLEEELRRRLTEp (SEQ ID NO: 17)] |  | > 1.67 h | 
14 | SPSGLEQELRRRLDAP (Tag variant tested inside a fusion protein, position M) [spSGLEQELRRRLDAp (SEQ ID NO: 23)] |  | > 1.67 h | 
15 | SPSGLEQELRRRLEAP (Tag variant tested inside a fusion protein, position M) [spSGLEQELRRRLEAp (SEQ ID NO: 24)] |  | > 1.67 h | 
16 | SPSGLEQELRRRLTAP (Tag variant tested inside a fusion protein, position M) [spSGLEQELRRRLTAp (SEQ ID NO: 22)] |  | > 1.67 h | 
17 | SPSGLEQELRRRLTEP (Tag variant tested inside a fusion protein, position M) [spSGLEQELRRRLTEp (SEQ ID NO: 25)] |  | > 1.67 h | 
18 | SPSRLEEELRRRLDAP (not fully specified (residues 1, 2, 16); printed as spSRLEEELRRRLDAp, Tag variant tested inside a fusion protein, position M) [spSRLEEELRRRLDAp (SEQ ID NO: 12)] |  | > 1.67 h | 
19 | SPSRLEEELRRRLEAP (Tag variant tested inside a fusion protein, position M) [spSRLEEELRRRLEAp (SEQ ID NO: 13)] |  | > 1.67 h | 
20 | SPSRLEEELRRRLTAP (Tag variant tested inside a fusion protein, position M) [spSRLEEELRRRLTAp (SEQ ID NO: 11)] |  | > 1.67 h | 
21 | SPSRLEEELRRRLTDP (Tag variant tested inside a fusion protein, position M) [spSRLEEELRRRLTDp (SEQ ID NO: 14)] |  | > 1.67 h | 
22 | SPSRLEEELRRRLTEP (Tag variant tested inside a fusion protein, position M) [spSRLEEELRRRLTEp (SEQ ID NO: 15)] |  | > 1.67 h | 
23 | SPSRLEEELRRRLTADP (Tag variant tested inside a fusion protein, position M) [spSRLEEELRRRLTAdp (SEQ ID NO: 16)] |  | > 1.67 h | 
24 | GPSRLEEELRRRLT (Tag variant tested inside a fusion protein, position C) [gPSRLEEELRRRLT. (SEQ ID NO: 18)] | > 1.67 h |  | 
25 | GPSRLEEELRRRLTAAS (Tag variant tested inside a fusion protein, position C) [gPSRLEEELRRRLTAas. (SEQ ID NO: 21)] | > 1.67 h |  | 
26 | MSRLEEELRRRLTEP (Tag variant tested inside a fusion protein, position N) [MSRLEEELRRRLTEp (SEQ ID NO: 29)] |  |  | t1/2 [1]: > 1.67 h
27 | PSRLEEELRRRLTEP (not fully specified (residues 1, 15); printed as pSRLEEELRRRLTEp, Tag tested inside a fusion protein, position M; also called ALFA^ST tag (internal)) [pSRLEEELRRRLTEp (SEQ ID NO: 6)] |  | > 1.67 h | 
28 | PSRLEEELRRRLTE (Tag tested inside a fusion protein, position C; also called ALFA^ST tag (C-terminal)) [pSRLEEELRRRLTE (SEQ ID NO: 7)] | > 1.67 h |  | 
29 | NbALFA^ST-mScarlet-I (VHH, Intrabody fusion expressed in COS-7 cells; also called pNT1004) VHH: EVQLQESGGGLVQPGGSLRLSCTASGVTISALNAMAMGWYRQAPGERRVMVAAVSERGNAMYRESVQGRFTVTRDFTNKMVSLQMDNLKPEDTAVYYCHVLEDRVDSFHDYWGQGTQVTVSS |  |  | binding result (ALFA^ST-FLAG-Vimentin [11]): binds
